# Patent publication US20030148956A1 (PROCTER AND GAMBLE, published 2003)
# Ends that are not written are not given here.
# Target: CRF1R
# Experiment: cell-based or functional assay
Binder,CRF1R EC50 [nM],CRF1R Emax [%]
DNPSLSIDLPFFLLRTLLELARTQSQRERAEQNAIIFASV-NH2 [SEQ ID NO 184],486,77.3
DNPSLSIDLPFYLLRTLLELARTQSQRERAEQNAIIFASV-NH2 [SEQ ID NO 183],415,57.5
IVLSLDVPIGLLQILLEQEKQEKEKQQATTNARILARV-NH2 [SEQ ID NO 167],1000,15
DNPSLSIDLPLLLLRTLLELARTQSQRERAEQNAIIFASV-NH2 [SEQ ID NO 174],1000,29.1
ZGPPISIDLPFQLLRKMIEIEKQEKEKQQATTNRLLLATV (C-terminal amide) [SEQ ID NO 17],260,98
ZGPPISIDLPFVLLRKMIEIEKQEKEKQQAANNRLLLDTI (C-terminal amide) [SEQ ID NO 190],> 100,9
ZGPPISIDLPFQLLRKMIEIEKQEKEKQQATTNRLLLARV (C-terminal amide) [SEQ ID NO 19],232,83
ZGPPISIDVPFQLLRKMIEIEKQEKEKQQATTNARILARV (C-terminal amide) [SEQ ID NO 172],1000,68
ZGPPISIDLPFQLLRKMIEIEKQEKEKQQATTNRLLLDRV (C-terminal amide) [SEQ ID NO 18],106,100
ZGPPISIDLPFILLRKMIEIEKQEKEKQQAANNRLLLDTI (C-terminal amide) [SEQ ID NO 189],62.2,57
ZGPPISIDLPFLLLRKMIEIEKQEKEKQQAANNRLLLDTI (C-terminal amide) [SEQ ID NO 191],63.7,65
DNPSLSIDLPFQLLRTLLELARTQSQRERAEQNAIIFASV-NH2 [SEQ ID NO 182],409,89.7
IVLSLDVPIGLLQILIEIEKQEKEKQQAATTNARILARV-NH2 [SEQ ID NO 168],1000,52
ZGPPISIDLPHWLLRKMIEIEKQEKEKQQAANNRLLLDTI (C-terminal amide) [SEQ ID NO 186],323,100
ZGPPISIDLPLVLLRKMIEIEKQEKEKQQAANNRLLLDTI (C-terminal amide) [SEQ ID NO 193],266,95
ZGPPISIDLPLLLLRKMIEIEKQEKEKQQAANNRLLLDTI (C-terminal amide) [SEQ ID NO 188],162,96

Binder,CRF1R EC50 [nM],CRF1R Emax [%]
ZGPPISIDLPWFLLRKMIEIEKQEKEKQQAANNRLLLDTI (C-terminal amide) [SEQ ID NO 187],31.6,72
ZGPPISIDLPIWLLRKMIEIEKQEKEKQQAANNRLLLDTI (C-terminal amide) [SEQ ID NO 192],562,99
DNPSLSIDLPLFLLRTLLELARTQSQRERAEQNAIIFASV-NH2 [SEQ ID NO 178],1000,55.7
DNPSLSIDLPFILLRTLLELARTQSQRERAEQNAIIFASV-NH2 [SEQ ID NO 181],154,100
DNPSLSIDLPLYLLRTLLELARTQSQRERAEQNAIIFASV-NH2 [SEQ ID NO 177],613,69.2
IVLSLDVPIGLLQILIEIEKQEKEKQQAANNARILARV-NH2 [SEQ ID NO 166],438,95
ZGPPISIDVPTYLLRILIEIEKQEKEKQQATTNARILARV (C-terminal amide) [SEQ ID NO 169],978,26
ZGPPISIDVPTYLLRKMIEIEKQEKEKQQATTNARILARV (C-terminal amide) [SEQ ID NO 170],1000,9
ZGPPISIDVPFQLLRILIEIEKQEKEKQQATTNARILARV (C-terminal amide) [SEQ ID NO 171],206,99
DNPSLSIDLPFHLLRTLLELARTQSQRERAEQNAIIFASV-NH2 [SEQ ID NO 185],358,95.8
DNPSLSIDLPLHLLRTLLELARTQSQRERAEQNAIIFASV-NH2 [SEQ ID NO 179],477,78.9
DNPSLSIDLPTYLLRTLLELARTQSQRERAEQNAIIFASV-NH2 [SEQ ID NO 173],1000,6.05
DNPSLSIDLPLQLLRTLLELARTQSQRERAEQNAIIFASV-NH2 [SEQ ID NO 176],1000,26.9
DNPSLSIDLPFLLLRTLLELARTQSQRERAEQNAIIFASV-NH2 [SEQ ID NO 180],125,99.3
DNPSLSIDLPLILLRTLLELARTQSQRERAEQNAIIFASV-NH2 [SEQ ID NO 175],1000,34.8

# Target: T1, CRF2R
# T1 sequence (Q13324 whole entry, species assumed, looked up): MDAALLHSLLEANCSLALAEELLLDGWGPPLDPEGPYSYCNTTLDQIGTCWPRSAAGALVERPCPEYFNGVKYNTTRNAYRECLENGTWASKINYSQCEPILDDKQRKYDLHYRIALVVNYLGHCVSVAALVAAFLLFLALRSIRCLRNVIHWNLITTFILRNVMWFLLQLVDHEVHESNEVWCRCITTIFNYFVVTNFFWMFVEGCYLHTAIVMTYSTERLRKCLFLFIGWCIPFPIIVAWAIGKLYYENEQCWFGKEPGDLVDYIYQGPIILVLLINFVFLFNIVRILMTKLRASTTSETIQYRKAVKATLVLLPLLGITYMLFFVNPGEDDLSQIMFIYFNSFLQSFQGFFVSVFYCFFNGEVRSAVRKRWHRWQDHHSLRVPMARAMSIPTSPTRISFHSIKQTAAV
# Experiment: cell-based or functional assay
Binder,CRF2R EC50 [nM],CRF2R Emax [%]
DNPSLSIDLPFFLLRTLLELARTQSQRERAEQNAIIFASV-NH2 [SEQ ID NO 184],3.72,96.5
DNPSLSIDLPFYLLRTLLELARTQSQRERAEQNAIIFASV-NH2 [SEQ ID NO 183],7.93,100
IVLSLDVPIGLLQILLEQEKQEKEKQQATTNARILARV-NH2 [SEQ ID NO 167],13,100
DNPSLSIDLPLLLLRTLLELARTQSQRERAEQNAIIFASV-NH2 [SEQ ID NO 174],4.42,97.2
ZGPPISIDLPFQLLRKMIEIEKQEKEKQQATTNRLLLATV (C-terminal amide) [SEQ ID NO 17],10.2,96
ZGPPISIDLPFVLLRKMIEIEKQEKEKQQAANNRLLLDTI (C-terminal amide) [SEQ ID NO 190],39.6,31
ZGPPISIDLPFQLLRKMIEIEKQEKEKQQATTNRLLLARV (C-terminal amide) [SEQ ID NO 19],7.42,75
ZGPPISIDVPFQLLRKMIEIEKQEKEKQQATTNARILARV (C-terminal amide) [SEQ ID NO 172],13.5,100
ZGPPISIDLPFQLLRKMIEIEKQEKEKQQATTNRLLLDRV (C-terminal amide) [SEQ ID NO 18],5.29,97
ZGPPISIDLPFILLRKMIEIEKQEKEKQQAANNRLLLDTI (C-terminal amide) [SEQ ID NO 189],7,96
ZGPPISIDLPFLLLRKMIEIEKQEKEKQQAANNRLLLDTI (C-terminal amide) [SEQ ID NO 191],8.3,100
DNPSLSIDLPFQLLRTLLELARTQSQRERAEQNAIIFASV-NH2 [SEQ ID NO 182],7.21,91.4
IVLSLDVPIGLLQILIEIEKQEKEKQQAATTNARILARV-NH2 [SEQ ID NO 168],4.9,75
ZGPPISIDLPHWLLRKMIEIEKQEKEKQQAANNRLLLDTI (C-terminal amide) [SEQ ID NO 186],25.1,100
ZGPPISIDLPLVLLRKMIEIEKQEKEKQQAANNRLLLDTI (C-terminal amide) [SEQ ID NO 193],10.1,97
ZGPPISIDLPLLLLRKMIEIEKQEKEKQQAANNRLLLDTI (C-terminal amide) [SEQ ID NO 188],14.6,100

Binder,CRF2R EC50 [nM],CRF2R Emax [%]
ZGPPISIDLPWFLLRKMIEIEKQEKEKQQAANNRLLLDTI (C-terminal amide) [SEQ ID NO 187],10.3,100
ZGPPISIDLPIWLLRKMIEIEKQEKEKQQAANNRLLLDTI (C-terminal amide) [SEQ ID NO 192],66.8,97
DNPSLSIDLPLFLLRTLLELARTQSQRERAEQNAIIFASV-NH2 [SEQ ID NO 178],5.17,96.5
DNPSLSIDLPFILLRTLLELARTQSQRERAEQNAIIFASV-NH2 [SEQ ID NO 181],5.22,97.8
DNPSLSIDLPLYLLRTLLELARTQSQRERAEQNAIIFASV-NH2 [SEQ ID NO 177],5.63,97.7
IVLSLDVPIGLLQILIEIEKQEKEKQQAANNARILARV-NH2 [SEQ ID NO 166],3.7,99
ZGPPISIDVPTYLLRILIEIEKQEKEKQQATTNARILARV (C-terminal amide) [SEQ ID NO 169],17.8,93
ZGPPISIDVPTYLLRKMIEIEKQEKEKQQATTNARILARV (C-terminal amide) [SEQ ID NO 170],75,83
ZGPPISIDVPFQLLRILIEIEKQEKEKQQATTNARILARV (C-terminal amide) [SEQ ID NO 171],17.6,100
DNPSLSIDLPFHLLRTLLELARTQSQRERAEQNAIIFASV-NH2 [SEQ ID NO 185],8.98,100
DNPSLSIDLPLHLLRTLLELARTQSQRERAEQNAIIFASV-NH2 [SEQ ID NO 179],10.2,92.5
DNPSLSIDLPTYLLRTLLELARTQSQRERAEQNAIIFASV-NH2 [SEQ ID NO 173],100,65.2
DNPSLSIDLPLQLLRTLLELARTQSQRERAEQNAIIFASV-NH2 [SEQ ID NO 176],12.6,90.2
DNPSLSIDLPFLLLRTLLELARTQSQRERAEQNAIIFASV-NH2 [SEQ ID NO 180],3.14,95.7
DNPSLSIDLPLILLRTLLELARTQSQRERAEQNAIIFASV-NH2 [SEQ ID NO 175],5.42,92.2
